Results taken from patent US20120316071A1 (published 2012).

Assays:
[1] = target: T1, Recombinant Human DLL4 (delta-like protein 4) (human, UniProt Q9NR61 27-524); assay: ELISA, plate-coated DLL4, Fab 12.5 nM
T1 construct: also called rHuman DLL4

[2] = target: T1, Recombinant Human DLL4 (delta-like …); assay: ELISA, plate-coated DLL4, Fab 6.25 nM
[3] = target: T1, Recombinant Human DLL4 (delta-like …); assay: ELISA, plate-coated DLL4, Fab 3.125 nM
[4] = target: T1, Recombinant Human DLL4 (delta-like …); assay: ELISA, plate-coated DLL4, Fab 100 nM
[5] = target: T1, Recombinant Human DLL4 (delta-like …); assay: ELISA, plate-coated DLL4, Fab 25 nM
[6] = target: T1, Recombinant Human DLL4 (delta-like …); assay: ELISA, plate-coated DLL4, Fab 50 nM
[7] = target: T2, Recombinant Human DLL4 (delta-like protein 4) (human, UniProt Q9NR61 27-524); assay: ELISA, DLL4 coated plate, Fab in solution; average signal minus noise
T2 construct: Bought recombinant human DLL4 (R&D Systems Cat#1506-D4/CF), coated on the plate; also called rHuman DLL4; Delta-like 4

[8] = target: T2, Recombinant Human DLL4 (delta-like …); assay: ECL (MSD) 96-well plate assay, recombinant human DLL4 coated, Fab in solution

| Binder | ELISA signal at 12.5 nM Fab [1] | ELISA signal at 6.25 nM Fab [2] | ELISA signal at 3.125 nM Fab [3] | ELISA signal at 100 nM Fab [4] | ELISA signal at 25 nM Fab [5] | ELISA signal at 50 nM Fab [6] | ELISA (Avgerage signal-noise) [7] | ECL signal [8] |
| --- | --- | --- | --- | --- | --- | --- | --- | --- |
| Fab VH1-46_IGHD6-6*01_IGHJ1*01 S102A/S103P/S104F/H111F (APFF) & L6_IGKJ1*01 S28N/S30D/S31H (NDH) (Fab, V domains shown, Fab made in E. coli: VH in plasmid A (CH1, His6 and Flag tags), VL in plasmid C (kappa CL); also called H:APFF & L:NDH; APFF / NDH) VH: QVQLVQSGAEVKKPGASVKVSCKASGYTFTSYYMHWVRQAPGQGLEWMGIINPSGGSTSYAQKFQGRVTMTRDTSTSTVYMELSSLRSEDTAVYYCAREEYAPFSAEYFQFWGQGTLVTVSS VL: EIVLTQSPATLSLSPGERATLSCRASQNVDHYLAWYQQKPGQAPRLLIYDASNRATGIPARFSGSGSGTDFTLTISSLEPEDFAVYYCQQRSNWPPWTFGQGTKVEIKR | 0.192 | 0.125 | 0.096 | 0.686 | 0.31 | 0.507 |  |  |
| Fab VH1-46_IGHD6-6*01_IGHJ1*01 S102A/S103P/S104F/H111F (APFF) & L6_IGKJ1*01 S28N/S30D/S31H A55G (Fab, V domains shown, Fab made in E. coli: VH in plasmid A (CH1, His6 and Flag tags), VL in plasmid C (kappa CL); also called H:APFF & L:NDH A55G; APFF / NDH/A55G) VH: QVQLVQSGAEVKKPGASVKVSCKASGYTFTSYYMHWVRQAPGQGLEWMGIINPSGGSTSYAQKFQGRVTMTRDTSTSTVYMELSSLRSEDTAVYYCAREEYAPFSAEYFQFWGQGTLVTVSS VL: EIVLTQSPATLSLSPGERATLSCRASQNVDHYLAWYQQKPGQAPRLLIYDASNRGTGIPARFSGSGSGTDFTLTISSLEPEDFAVYYCQQRSNWPPWTFGQGTKVEIKR | 0.198 | 0.125 | 0.093 | 0.814 | 0.316 | 0.51 |  |  |
| Fab VH1-46_IGHD6-6*01_IGHJ1*01 S102A/S103P/S104F/H111F (H:APFF) & L6_IGKJ1*01 S28N/S30D/S31H N53A (Fab, V domains shown, Fab made in E. coli: heavy chain from Plasmid A (CH1, His6 and Flag tags), kappa light chain from Plasmid C (kappa CL); also called H:APFF & L:NDH N53A) VH: QVQLVQSGAEVKKPGASVKVSCKASGYTFTSYYMHWVRQAPGQGLEWMGIINPSGGSTSYAQKFQGRVTMTRDTSTSTVYMELSSLRSEDTAVYYCAREEYAPFSAEYFQFWGQGTLVTVSS VL: EIVLTQSPATLSLSPGERATLSCRASQNVDHYLAWYQQKPGQAPRLLIYDASARATGIPARFSGSGSGTDFTLTISSLEPEDFAVYYCQQRSNWPPWTFGQGTKVEIKR |  |  |  |  |  |  | 0.151 | 14200 |
| Fab VH1-46_IGHD6-6*01_IGHJ1*01 S102A/S103P/S104F/H111F (APFF) & L6_IGKJ1*01 S28N/S30D/S31H S52T (Fab, V domains shown, Fab made in E. coli: VH in plasmid A (CH1, His6 and Flag tags), VL in plasmid C (kappa CL); also called H:APFF & L:NDH S52T; APFF / NDH/S52T) VH: QVQLVQSGAEVKKPGASVKVSCKASGYTFTSYYMHWVRQAPGQGLEWMGIINPSGGSTSYAQKFQGRVTMTRDTSTSTVYMELSSLRSEDTAVYYCAREEYAPFSAEYFQFWGQGTLVTVSS VL: EIVLTQSPATLSLSPGERATLSCRASQNVDHYLAWYQQKPGQAPRLLIYDATNRATGIPARFSGSGSGTDFTLTISSLEPEDFAVYYCQQRSNWPPWTFGQGTKVEIKR | 0.215 | 0.13 | 0.099 | 0.653 | 0.323 | 0.49 |  |  |
| Fab VH1-46_IGHD6-6*01_IGHJ1*01 S102A/S103P/S104F/H111F (APFF) & L6_IGKJ1*01 S28N/S30D/S31H N53H (Fab, V domains shown, Fab made in E. coli: VH in plasmid A (CH1, His6 and Flag tags), VL in plasmid C (kappa CL); also called H:APFF & L:NDH N53H; APFF / NDH/N53H) VH: QVQLVQSGAEVKKPGASVKVSCKASGYTFTSYYMHWVRQAPGQGLEWMGIINPSGGSTSYAQKFQGRVTMTRDTSTSTVYMELSSLRSEDTAVYYCAREEYAPFSAEYFQFWGQGTLVTVSS VL: EIVLTQSPATLSLSPGERATLSCRASQNVDHYLAWYQQKPGQAPRLLIYDASHRATGIPARFSGSGSGTDFTLTISSLEPEDFAVYYCQQRSNWPPWTFGQGTKVEIKR | 0.167 | 0.109 | 0.089 | 0.608 | 0.238 | 0.416 |  |  |
| Fab VH1-46_IGHD6-6*01_IGHJ1*01 S102A/S103P/S104F/H111F (APFF) & L6_IGKJ1*01 S28N/S30D/S31H S52L (Fab, V domains shown, Fab made in E. coli: VH in plasmid A (CH1, His6 and Flag tags), VL in plasmid C (kappa CL); also called H:APFF & L:NDH S52L; APFF / NDH/S52L) VH: QVQLVQSGAEVKKPGASVKVSCKASGYTFTSYYMHWVRQAPGQGLEWMGIINPSGGSTSYAQKFQGRVTMTRDTSTSTVYMELSSLRSEDTAVYYCAREEYAPFSAEYFQFWGQGTLVTVSS VL: EIVLTQSPATLSLSPGERATLSCRASQNVDHYLAWYQQKPGQAPRLLIYDALNRATGIPARFSGSGSGTDFTLTISSLEPEDFAVYYCQQRSNWPPWTFGQGTKVEIKR | 0.215 | 0.142 | 0.095 | 0.791 | 0.335 | 0.546 |  |  |
| Fab VH1-46_IGHD6-6*01_IGHJ1*01 S102A/S103P/S104F/H111F (H:APFF) & L6_IGKJ1*01 S28N/S30D/S31H N53P (Fab, V domains shown, Fab made in E. coli: heavy chain from Plasmid A (CH1, His6 and Flag tags), kappa light chain from Plasmid C (kappa CL); also called H:APFF & L:NDH N53P) VH: QVQLVQSGAEVKKPGASVKVSCKASGYTFTSYYMHWVRQAPGQGLEWMGIINPSGGSTSYAQKFQGRVTMTRDTSTSTVYMELSSLRSEDTAVYYCAREEYAPFSAEYFQFWGQGTLVTVSS VL: EIVLTQSPATLSLSPGERATLSCRASQNVDHYLAWYQQKPGQAPRLLIYDASPRATGIPARFSGSGSGTDFTLTISSLEPEDFAVYYCQQRSNWPPWTFGQGTKVEIKR |  |  |  |  |  |  | 0.12 | 18100 |
| Fab VH1-46_IGHD6-6*01_IGHJ1*01 S102A/S103P/S104F/H111F (APFF) & L6_IGKJ1*01 S28N/S30D/S31H A55S (Fab, V domains shown, Fab made in E. coli: VH in plasmid A (CH1, His6 and Flag tags), VL in plasmid C (kappa CL); also called H:APFF & L:NDH A55S; APFF / NDH/A55S) VH: QVQLVQSGAEVKKPGASVKVSCKASGYTFTSYYMHWVRQAPGQGLEWMGIINPSGGSTSYAQKFQGRVTMTRDTSTSTVYMELSSLRSEDTAVYYCAREEYAPFSAEYFQFWGQGTLVTVSS VL: EIVLTQSPATLSLSPGERATLSCRASQNVDHYLAWYQQKPGQAPRLLIYDASNRSTGIPARFSGSGSGTDFTLTISSLEPEDFAVYYCQQRSNWPPWTFGQGTKVEIKR | 0.258 | 0.154 | 0.108 | 0.858 | 0.407 | 0.588 |  |  |
